Publication PMC11784312 (2024)

Legend:
Assay in all cases: ELISA
[1] = target: hemagglutinin of A/duck/Guangxi/SDY129/2014 (H7N9) (influenza A virus …)
[2] = target: hemagglutinin of A/pigeon/Shanghai/S1069/2013 (H7N9) (influenza A virus …)
[3] = target: hemagglutinin of A/chicken/Yunnan/SD193/2017 (H7N9) (influenza A virus …)
[4] = target: hemagglutinin of A/chicken/Guangdong/SD008/2017 (H7N9) (influenza A virus …)

B1: 1H9 neutralizing antibody (antibody, V domains shown)
VH: VQLQESGPGLVKPSQSLSLTCTVTGYSITSDYTWNWIRQFPGNKLEWMGYITYSDTTSYNPSLKSRISITRDTSKNQFFLQLNSVTTEDTATYYCARSDGWYGFAYWGQGTLVTVSA
VL: DIQMNQSPSSLSASLGDTITITCHASQNINVWLSWYQQKPGNIPKLLIYKAFDLHTGVPSRFSGSGSGTGFTLTISSLQPEDIATYYCQQGQTYPFTFGGGTKLEIK
- EC50 [1]: 0.0808 µg/mL
- EC50 [2]: 0.0837 µg/mL
- EC50 [3]: 0.195 µg/mL
- EC50 [4]: 0.0861 µg/mL

B2: 2D7 neutralizing antibody (antibody, V domains shown)
VH: VQLQESGPGLVKPSQSLSLTCTVTGYSITSDYTWNWIRQFPGNKLEWMGYISYSGSTSYNPSLKSRMSITRDTSKNQFLLQLNSVTTADTATYYCTRDGPYWHIDVWGAGTTVTVSS
VL: DIQMNQSPSSLSASLGDTITITCHASQTINIWLSWYQLKPGNIPKLLIYKASNLHTGVPSRFSGSGSGTGFTLTISSLQPEDIASYYCQQGQSFPYTFGGGTKLEIK
- EC50 [1]: 0.0535 µg/mL
- EC50 [2]: 0.0857 µg/mL
- EC50 [3]: 0.0539 µg/mL
- EC50 [4]: 0.0561 µg/mL
